This is an account of results in PMC6649072.

In general, Km refers to the substrate concentration at which the rate is half of its maximum. Broadly, the kcat is the number of substrate molecules converted per active site and unit of time at saturation.

Substrate in the data set: C[C@@H]1O[C@@H](Oc2ccc([N+](=O)[O-])cc2)[C@H](O)[C@H](O)[C@H]1O
As to the kind of experiment: purified protein. To be noted: pH 5.0, 37 °C (b12; Experimental b31 prints Tris 200 mM, pH 6.0).

B1: DtRha (Dictyoglomus thermophilum H-6-12) (protein)
chain: MKSSNIYSPFDLKCEFTTNPLGVDKKNPIFSWKLRHLEKNEKQTAYQVIVSSSLETINDNIGDVWDTGKVLSSEQVIKYEGKELEPCKVYFWKVRWWDSKDQESPFSVVNTFETGLMNEENWKAKWITKKEHKYEVYSPDGAPFGLNYTIAYAPMFRKSFSISKKIKRARVYIAGLGLYELYINGERIGDRVLDPGQTDYKKRVLYTVYDVSKNIRDGKNAIGVILGNGRYVKEYGYDFPKLIIQVLVEYEDDSIEWIVSDESWKTTYGPITLNSLYHGEIYDGRKEIKGWNLPDFDDSTWENAILAEPPGGKLYSEIYPPIRITKTIKPIKMWSPEPGTYVYDFGQNYTGWIKIKVRTNESGKEIRIRHAELTYEDGTLNYSTNRTALATDVYITKGEGYEEYEPRFTYHGFRYVEILGYPGVPTLEDIEGKVVHTAVESNGEFICSNELINKIHHNIIWGQLSNLMSIPTDCPQRDERMGWMGDAQLSAEEAIFNFDMIGFYRKYLNDIRDAQKENGSLSDVIPPYWSIYPGDPAWSTAYITIAWYLYQYYGDKYVLEEHYEGFKKYVEFLKKLAPDYIVSFYKYGDWCQPGTVRPKDNSGELTSTFYFYHDVITLSKIAKLLGKEADYKYYSELADKIKSAFNKKFLKEKAYASIPTELSEENVKALLEKYPEDIKDFLRQQFTILSSLGMFTSQTLNTLPLYLNLVPEDKVQDVLKTLLEDIIIRHDYHLDTGIVATRYIFDVLTSYGYDEVAYKIVNQKTYPSFGYMIEEGATTLWERWEKLTSTGMNSHNHIMFGSVDAWFYRVIAGVRVGEPGWNKIIFEPHPVGDLKYAKARLNTIKGEVEINWQKTENIFSMRISVPVNSEGEVHVPKLFERFVVKEGDNIIYEKKGDLEENEKYIVIRVGSGSYNFYMEKI
As for B1, the Km was found to be 54.00 ± 0.03 µM and the kcat turned out to be 0.17 ± 0.01 s⁻¹.
